Test system: Escherichia coli TOP10
Test: shrunken log2 fold change of peptide-encoding DNA abundance (4.5 h post-induction vs induction); higher = less antimicrobial activity (less host growth inhibition)
Details: time post-induction: 4.5 h; library: site-saturation at positions 5, 18, 19, 20
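Further: peptides expressed intracellularly from a pBAD plasmid library in pooled LB shake-flask culture, induced with 0.3% L-arabinose, DNA abundance read by NGS, three biological replicates, DESeq2 with apeglm shrinkage.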

Sequence	shrunken log2 fold change
RRIRERPPRLPRPRPRPRQTPRP	0.253
RRIRARPPRLPRPRPRPNPTPRP	1.11
RRIRWRPPRLPRPRPRPNWYPRP	-0.372
RRIRVRPPRLPRPRPRPGQFPRP	-0.156
RRIRIRPPRLPRPRPRPSWLPRP	-0.373
RRIRRRPPRLPRPRPRPNSCPRP	-0.0116
RRIRPRPPRLPRPRPRPTQNPRP	0.534
RRIRFRPPRLPRPRPRPWVGPRP	-0.0721
RRIRPRPPRLPRPRPRPGGPPRP	0.41
RRIRARPPRLPRPRPRPNRAPRP	-0.0385
RRIRNRPPRLPRPRPRPEVTPRP	-0.0105
RRIRLRPPRLPRPRPRPIWYPRP	-0.645
RRIRNRPPRLPRPRPRPRACPRP	-0.0233
RRIRRRPPRLPRPRPRPMHDPRP	0.117
RRIRQRPPRLPRPRPRPVNLPRP	-0.014
RRIRFRPPRLPRPRPRPIGEPRP	0.0336
RRIRNRPPRLPRPRPRPSAVPRP	-0.193
RRIRRRPPRLPRPRPRPAKAPRP	0.12
RRIRNRPPRLPRPRPRPWPDPRP	0.646
RRIRTRPPRLPRPRPRPRATPRP	0.299
RRIRARPPRLPRPRPRPLMKPRP	0.106
RRIRFRPPRLPRPRPRPYYEPRP	-0.231
RRIRPRPPRLPRPRPRPGYKPRP	-0.141
RRIRYRPPRLPRPRPRPGNHPRP	-0.064
RRIRHRPPRLPRPRPRPHQIPRP	0.0658

Sequence	shrunken log2 fold change
RRIRLRPPRLPRPRPRPFNNPRP	-0.426
RRIRKRPPRLPRPRPRPHMHPRP	-0.186
RRIRGRPPRLPRPRPRPLLNPRP	0.76
RRIRQRPPRLPRPRPRPLGRPRP	-0.00354
RRIRARPPRLPRPRPRPCSAPRP	0.356
RRIRGRPPRLPRPRPRPNHPPRP	0.0349
RRIRNRPPRLPRPRPRPGYCPRP	-0.369
RRIRLRPPRLPRPRPRPMTQPRP	0.162
RRIRQRPPRLPRPRPRPEWYPRP	0.0539
RRIRERPPRLPRPRPRPASQPRP	-0.0177
RRIRSRPPRLPRPRPRPRFEPRP	0.402
RRIRLRPPRLPRPRPRPRHYPRP	-0.127
RRIRRRPPRLPRPRPRPPMDPRP	0.385
RRIRGRPPRLPRPRPRPYYAPRP	-0.242
RRIRFRPPRLPRPRPRPKIMPRP	-0.624
RRIRIRPPRLPRPRPRPDDMPRP	-0.0552
RRIRTRPPRLPRPRPRPHDQPRP	0.0187
RRIRSRPPRLPRPRPRPCRFPRP	-0.0924
RRIRARPPRLPRPRPRPRTKPRP	0.565
RRIRYRPPRLPRPRPRPTDRPRP	-0.144
RRIRYRPPRLPRPRPRPTDIPRP	-0.031
RRIRPRPPRLPRPRPRPMGCPRP	-0.0927
RRIRIRPPRLPRPRPRPTPNPRP	-0.0265
RRIRGRPPRLPRPRPRPCFTPRP	0.334
RRIRARPPRLPRPRPRPMQQPRP	0.281

Sequence	shrunken log2 fold change
RRIRERPPRLPRPRPRPATHPRP	-0.264
RRIRVRPPRLPRPRPRPKAHPRP	-0.00647
RRIRERPPRLPRPRPRPMATPRP	0.0537
RRIRPRPPRLPRPRPRPNKSPRP	0.408
RRIRKRPPRLPRPRPRPWCRPRP	-0.189
RRIRKRPPRLPRPRPRPEAMPRP	0.0888
RRIRVRPPRLPRPRPRPIPRPRP	0.0796
RRIRIRPPRLPRPRPRPKKLPRP	-0.219
RRIRVRPPRLPRPRPRPDWKPRP	-0.0682
RRIRIRPPRLPRPRPRPKMDPRP	0.0209
RRIRNRPPRLPRPRPRPQTAPRP	-0.0947
RRIRQRPPRLPRPRPRPPMWPRP	0.336
RRIRRRPPRLPRPRPRPEQYPRP	0.17
RRIRARPPRLPRPRPRPSIRPRP	-0.0712
RRIRNRPPRLPRPRPRPIEWPRP	-0.00176
RRIRCRPPRLPRPRPRPIHRPRP	-0.0331
RRIRGRPPRLPRPRPRPGAKPRP	0.924
RRIRCRPPRLPRPRPRPQCEPRP	-0.128
RRIRQRPPRLPRPRPRPWTNPRP	-0.00183
RRIRERPPRLPRPRPRPYGGPRP	-0.286
RRIRSRPPRLPRPRPRPRHTPRP	0.0335
RRIRIRPPRLPRPRPRPSKMPRP	-1.18
RRIRIRPPRLPRPRPRPYCIPRP	-0.224
RRIRYRPPRLPRPRPRPRHTPRP	-0.108
RRIRTRPPRLPRPRPRPLDWPRP	0.398

Sequence	shrunken log2 fold change
RRIRIRPPRLPRPRPRPLYVPRP	-1.06
RRIRQRPPRLPRPRPRPRETPRP	0.248
RRIRIRPPRLPRPRPRPHCYPRP	-0.104
RRIRNRPPRLPRPRPRPQQKPRP	0.0694
RRIRTRPPRLPRPRPRPEFVPRP	0.107
RRIRKRPPRLPRPRPRPLAAPRP	0.847
RRIRIRPPRLPRPRPRPKMHPRP	-0.299
RRIRERPPRLPRPRPRPITFPRP	-0.338
RRIRSRPPRLPRPRPRPAWPPRP	0.49
RRIRMRPPRLPRPRPRPYLIPRP	-0.463
RRIRIRPPRLPRPRPRPPLFPRP	0.0406
RRIRIRPPRLPRPRPRPKIPPRP	-0.212
RRIRIRPPRLPRPRPRPMRVPRP	0.109
RRIRWRPPRLPRPRPRPKAEPRP	-0.015
RRIRQRPPRLPRPRPRPNRMPRP	0.00219
RRIRQRPPRLPRPRPRPVTGPRP	0.0279
RRIRKRPPRLPRPRPRPDSMPRP	0.0692
RRIRARPPRLPRPRPRPFMAPRP	-0.163
RRIRERPPRLPRPRPRPLALPRP	-0.265
RRIRTRPPRLPRPRPRPREDPRP	-0.147
RRIRARPPRLPRPRPRPCNHPRP	-0.177
RRIRYRPPRLPRPRPRPHCLPRP	-0.0757
RRIRFRPPRLPRPRPRPDGDPRP	0.0613
RRIRFRPPRLPRPRPRPAGHPRP	0.153
RRIRERPPRLPRPRPRPSETPRP	-0.428

Sequence	shrunken log2 fold change
RRIRTRPPRLPRPRPRPCMNPRP	-1.43
RRIRYRPPRLPRPRPRPQCHPRP	-0.198
RRIRRRPPRLPRPRPRPHVVPRP	0.0538
RRIRHRPPRLPRPRPRPFGTPRP	-0.213
RRIRRRPPRLPRPRPRPVWQPRP	0.395
RRIRYRPPRLPRPRPRPQDQPRP	-0.21
RRIRKRPPRLPRPRPRPGLAPRP	0.977
RRIRGRPPRLPRPRPRPFIEPRP	0.364
RRIRERPPRLPRPRPRPSQVPRP	-0.0606
RRIRTRPPRLPRPRPRPLFQPRP	-0.348
RRIRQRPPRLPRPRPRPFEQPRP	0.106
RRIRNRPPRLPRPRPRPMWYPRP	-0.0267
RRIRYRPPRLPRPRPRPLYHPRP	-1.11
RRIRGRPPRLPRPRPRPFETPRP	2.8
RRIRGRPPRLPRPRPRPKAGPRP	1.17
RRIRPRPPRLPRPRPRPTQWPRP	0.248
RRIRIRPPRLPRPRPRPFSQPRP	-0.52
RRIRHRPPRLPRPRPRPEHYPRP	0.504
RRIRQRPPRLPRPRPRPCMFPRP	-0.214
RRIRHRPPRLPRPRPRPIFGPRP	-0.0177
RRIRTRPPRLPRPRPRPPHTPRP	0.0399
RRIRMRPPRLPRPRPRPMTGPRP	0.0472
RRIRCRPPRLPRPRPRPNYAPRP	-0.0784
RRIRCRPPRLPRPRPRPSVPPRP	-0.784
RRIRGRPPRLPRPRPRPMQAPRP	0.256

Sequence	shrunken log2 fold change
RRIRWRPPRLPRPRPRPPDDPRP	0.847
RRIRFRPPRLPRPRPRPLHKPRP	-0.179
RRIRWRPPRLPRPRPRPHFWPRP	0.27
RRIRCRPPRLPRPRPRPSWAPRP	0.18
RRIRQRPPRLPRPRPRPQAIPRP	0.0712
RRIRNRPPRLPRPRPRPEICPRP	0.0654
RRIRCRPPRLPRPRPRPLPYPRP	-0.804
RRIRTRPPRLPRPRPRPREKPRP	-0.00088
RRIRYRPPRLPRPRPRPAQAPRP	0.0486
RRIRMRPPRLPRPRPRPDAAPRP	3.98
RRIRRRPPRLPRPRPRPIHIPRP	-0.579
RRIRDRPPRLPRPRPRPGQQPRP	-0.0114
RRIRCRPPRLPRPRPRPDCYPRP	-0.0924
RRIRKRPPRLPRPRPRPHYFPRP	-0.268
RRIRERPPRLPRPRPRPDHGPRP	-0.00973
RRIRGRPPRLPRPRPRPDRGPRP	-0.123
RRIRSRPPRLPRPRPRPVQWPRP	0.175
RRIRDRPPRLPRPRPRPHRTPRP	-0.0884
RRIRPRPPRLPRPRPRPMVQPRP	0.0526
RRIRVRPPRLPRPRPRPQGIPRP	0.0752
RRIRRRPPRLPRPRPRPPKFPRP	0.298
RRIRYRPPRLPRPRPRPDCFPRP	-0.0906
RRIRFRPPRLPRPRPRPEREPRP	0.292
RRIRGRPPRLPRPRPRPRVAPRP	0.816
RRIRERPPRLPRPRPRPHVAPRP	0.0131
